# How the values were obtained:
# HLA-B*46:01 = experiment: IEDB peptide-MHC binding, purified MHC/competitive/fluorescence; filed as Kd, often an IC50 or EC50 that approximates it; ≥ and ≤ were set here for values at or beyond the usual limits of such assays
# HLA-B*39:01 = experiment: as above
# HLA-B*18:01 = experiment: as above
# HLA-B*15:17 = experiment: as above
# HLA-B*51:01 = experiment: as above
# HLA-B*57:01 = experiment: as above
# HLA-B*27:03 = experiment: as above
# HLA-A*69:01 = experiment: as above
# HLA-A*02:01 [1] = experiment: as above
# HLA-A*26:01 [2] = experiment: as above
# HLA-A*03:01 [3] = experiment: IEDB peptide-MHC binding, purified MHC/direct/fluorescence; filed as Kd, often an IC50 or EC50 that approximates it; ≥ and ≤ were set here for values at or beyond the usual limits of such assays
# HLA-A*02:16 = experiment: as above; conditions: source organism: Araucaria virus
# HLA-A*68:02 [4] = experiment: as above; conditions: source organism: Araucaria virus
# HLA-A*02:11 = experiment: as above; conditions: source organism: Araucaria virus
# HLA-A*29:02 [5] = experiment: as above
# HLA-A*02:12 = experiment: as above
# HLA-A*23:01 = experiment: as above
# HLA-A*02:19 [6] = experiment: as above
# HLA-B*15:01 [7] = experiment: as above; conditions: source organism: Orthohantavirus andesense
# HLA-A*24:03 = experiment: as above
# HLA-A*03:01 [8] = experiment: IEDB peptide-MHC binding, purified MHC/competitive/fluorescence; filed as Kd, often an IC50 or EC50 that approximates it; ≥ and ≤ were set here for values at or beyond the usual limits of such assays
# HLA-A*29:02 [9] = experiment: as above
# HLA-A*02:19 [10] = experiment: as above
# HLA-B*15:01 [11] = experiment: as above
# HLA-A*02:03 = experiment: IEDB peptide-MHC binding, purified MHC/competitive/radioactivity; filed as Kd, often an IC50 or EC50 that approximates it; ≥ and ≤ were set here for values at or beyond the usual limits of such assays
# HLA-A*02:06 = experiment: as above
# HLA-A*02:17 = experiment: as above
# HLA-A*02:01 [12] = experiment: as above
# HLA-A*68:02 [13] = experiment: as above; conditions: source organism: Dengue virus 3 Martinique/1243/1999
# HLA-A*26:01 [14] = experiment: as above; conditions: source organism: Dengue virus 4 Philippines/H241/1956
# HLA-A*01:01 [15] = experiment: IEDB peptide-MHC binding, purified MHC/competitive/fluorescence; filed as Kd, often an IC50 or EC50 that approximates it; ≥ and ≤ were set here for values at or beyond the usual limits of such assays
# HLA-A*30:01 = experiment: IEDB peptide-MHC binding, purified MHC/competitive/radioactivity; filed as Kd, often an IC50 or EC50 that approximates it; ≥ and ≤ were set here for values at or beyond the usual limits of such assays; conditions: source organism: Dengue virus 1 Brazil/97-11/1997
# HLA-A*31:01 = experiment: IEDB peptide-MHC binding, purified MHC/competitive/fluorescence; filed as Kd, often an IC50 or EC50 that approximates it; ≥ and ≤ were set here for values at or beyond the usual limits of such assays
# HLA-B*83:01 = experiment: as above; conditions: source organism: Dengue virus 3 Philippines/H87/1956
# HLA-B*45:06 = experiment: as above; conditions: source organism: Dengue virus 3 Philippines/H87/1956
# HLA-B*15:42 = experiment: as above; conditions: source organism: Dengue virus 3 Philippines/H87/1956
# HLA-A*11:01 = experiment: IEDB peptide-MHC binding, purified MHC/direct/fluorescence; filed as Kd, often an IC50 or EC50 that approximates it; ≥ and ≤ were set here for values at or beyond the usual limits of such assays; conditions: source organism: dengue virus type 2
# HLA-A*68:01 = experiment: IEDB peptide-MHC binding, purified MHC/competitive/radioactivity; filed as Kd, often an IC50 or EC50 that approximates it; ≥ and ≤ were set here for values at or beyond the usual limits of such assays; conditions: source organism: Dengue virus 3 Martinique/1243/1999
# HLA-A*01:01 [16] = experiment: as above; conditions: source organism: Dengue virus 4 Philippines/H241/1956
# [17] = source organism: Araucaria virus
# [18] = source organism: Campylobacter jejuni subsp. jejuni NCTC 11168 = ATCC 700819
# [19] = source organism: Dengue virus 4 Philippines/H241/1956
# [20] = source organism: Mycobacterium tuberculosis variant bovis BCG str. Pasteur 1173P2
# [21] = source organism: Dengue virus 1 Singapore/S275/1990
# [22] = source organism: Dengue virus 2 Peru/IQT2913/1996
# [23] = source organism: Dengue virus 2 Thailand/NGS-C/1944
# [24] = source organism: Zaire ebolavirus
sequence,measurement,setting,value
AQKLATKPV,Kd,HLA-B*46:01; [17],≥ 20000 nM
same,Kd,HLA-B*39:01; [17],≥ 20000 nM
same,Kd,HLA-B*18:01; [17],≥ 20000 nM
same,Kd,HLA-B*15:17; [17],≥ 20000 nM
same,Kd,HLA-B*51:01; [17],≥ 20000 nM
same,Kd,HLA-B*57:01; [17],≥ 20000 nM
same,Kd,HLA-B*27:03; [17],≥ 20000 nM
same,Kd,HLA-A*69:01; [17],≥ 20000 nM
same,Kd,HLA-A*02:01 [1]; [17],≥ 20000 nM
same,Kd,HLA-A*26:01 [2]; [17],≥ 20000 nM
same,Kd,HLA-A*03:01 [3]; [17],≥ 20000 nM
same,Kd,HLA-A*02:16,≥ 20000 nM
same,Kd,HLA-A*68:02 [4],≥ 20000 nM
same,Kd,HLA-A*02:11,≥ 20000 nM
same,Kd,HLA-A*29:02 [5]; [17],≥ 20000 nM
same,Kd,HLA-A*02:12; [17],≥ 20000 nM
same,Kd,HLA-A*23:01; [17],≥ 20000 nM
same,Kd,HLA-A*02:19 [6]; [17],≥ 20000 nM
same,Kd,HLA-B*15:01 [7],716 nM
same,Kd,HLA-A*24:03; [17],≥ 20000 nM
AVGFFPTGV,Kd,HLA-B*46:01; [18],≥ 20000 nM
same,Kd,HLA-A*03:01 [8]; [18],≥ 20000 nM
same,Kd,HLA-B*18:01; [18],≥ 20000 nM
same,Kd,HLA-A*29:02 [9]; [18],351 nM
same,Kd,HLA-B*51:01; [18],≥ 20000 nM
same,Kd,HLA-B*57:01; [18],≥ 20000 nM
same,Kd,HLA-B*27:03; [18],≥ 20000 nM
same,Kd,HLA-A*02:19 [10]; [18],103 nM
same,Kd,HLA-B*15:01 [11]; [18],≥ 20000 nM
same,Kd,HLA-A*02:01 [1]; [18],2.2 nM
same,Kd,HLA-A*26:01 [2]; [18],≥ 20000 nM
FESTITGEY,Kd,HLA-A*29:02 [9]; source organism: Vibrio cholerae 2740-80,7.5 nM
FMKDGRSLV,Kd,HLA-A*02:03; [19],16.1 nM
same,Kd,HLA-A*02:06; [19],318 nM
same,Kd,HLA-A*02:17; [19],1660 nM
same,Kd,HLA-A*02:01 [12]; [19],219 nM
GLFGKTQVGV,Kd,HLA-A*02:03; [19],0.55 nM
same,Kd,HLA-A*02:17; [19],2760 nM
same,Kd,HLA-A*02:01 [12]; [19],6.21 nM
GVFHTMWHV,Kd,HLA-A*68:02 [13],7.01 nM
same,Kd,HLA-A*02:06; source organism: Dengue virus 3 Martinique/1243/1999,4.41 nM
same,Kd,HLA-A*02:17; [19],109 nM
same,Kd,HLA-A*02:01 [12]; [19],7.59 nM
HLTRVGPYL,Kd,HLA-B*46:01; [20],≥ 20000 nM
same,Kd,HLA-A*03:01 [8]; [20],≥ 20000 nM
same,Kd,HLA-B*18:01; [20],≥ 20000 nM
same,Kd,HLA-A*29:02 [9]; [20],≥ 20000 nM
same,Kd,HLA-B*51:01; [20],≥ 20000 nM
same,Kd,HLA-B*57:01; [20],≥ 20000 nM
same,Kd,HLA-B*27:03; [20],≥ 20000 nM
same,Kd,HLA-A*02:19 [10]; [20],1030 nM
same,Kd,HLA-B*15:01 [11]; [20],≥ 20000 nM
same,Kd,HLA-A*02:01 [1]; [20],2.4 nM
same,Kd,HLA-A*26:01 [2]; [20],≥ 20000 nM
LLAGFMAYM,Kd,HLA-A*02:03; [19],68.5 nM
same,Kd,HLA-A*02:17; [19],1.97 nM
same,Kd,HLA-A*02:01 [12]; [19],4.7 nM
same,Kd,HLA-A*26:01 [14],1210 nM
LLENDMKFTV,Kd,HLA-A*02:17; [21],115 nM
same,Kd,HLA-A*02:01 [12]; [21],5.76 nM
LLVKLALITV,Kd,HLA-A*02:03; [19],0.18 nM
same,Kd,HLA-A*02:06; [19],769 nM
same,Kd,HLA-A*02:17; [19],6700 nM
same,Kd,HLA-A*02:01 [12]; [19],17.6 nM
LLYYWVHLF,Kd,HLA-A*29:02 [9]; source organism: Bacillus thuringiensis str. Al Hakam,22 nM
MLLVLCVTQV,Kd,HLA-A*02:03; [22],175 nM
same,Kd,HLA-A*02:06; [22],84 nM
same,Kd,HLA-A*02:17; [23],843 nM
same,Kd,HLA-A*02:01 [12]; [23],26.5 nM
MVKMGGLGY,Kd,HLA-A*29:02 [9]; source organism: Rotavirus G3,28.6 nM
same,Kd,HLA-A*01:01 [15]; source organism: Rotavirus G3,≥ 20000 nM
RKSAPSTGGV,Kd,HLA-A*02:17; source organism: Homo sapiens,≥ 20600 nM
same,Kd,HLA-A*02:01 [12]; source organism: Homo sapiens,≥ 38700 nM
TMLLMLLPTA,Kd,HLA-A*30:01,12400 nM
same,Kd,HLA-A*02:06; source organism: Dengue virus 1 Brazil/97-11/1997,2.59 nM
same,Kd,HLA-A*02:17; [21],661 nM
same,Kd,HLA-A*02:01 [12]; [21],30.6 nM
TSACGIFLK,Kd,HLA-B*46:01; [24],≥ 20000 nM
same,Kd,HLA-B*39:01; [24],≥ 20000 nM
same,Kd,HLA-B*18:01; [24],≥ 20000 nM
same,Kd,HLA-B*15:17; [24],≥ 20000 nM
same,Kd,HLA-B*51:01; [24],≥ 20000 nM
same,Kd,HLA-B*57:01; [24],≥ 20000 nM
same,Kd,HLA-A*31:01; [24],≥ 20000 nM
same,Kd,HLA-B*27:03; [24],≥ 20000 nM
same,Kd,HLA-B*15:01 [11]; [24],≥ 20000 nM
same,Kd,HLA-A*69:01; [24],≥ 20000 nM
same,Kd,HLA-A*02:01 [1]; [24],≥ 20000 nM
same,Kd,HLA-A*26:01 [2]; [24],≥ 20000 nM
same,Kd,HLA-A*03:01 [3]; source organism: Sudan ebolavirus - Maleo (1979),1100 nM
same,Kd,HLA-A*29:02 [5]; [24],≥ 20000 nM
same,Kd,HLA-A*02:12; [24],≥ 20000 nM
same,Kd,HLA-A*23:01; [24],≥ 20000 nM
same,Kd,HLA-A*02:19 [6]; [24],≥ 20000 nM
same,Kd,HLA-A*24:03; [24],≥ 20000 nM
TVMDIISRK,Kd,HLA-B*83:01,≥ 5000 nM
same,Kd,HLA-A*31:01; source organism: Dengue virus 3 Philippines/H87/1956,≥ 50000 nM
same,Kd,HLA-B*45:06,≥ 5000 nM
same,Kd,HLA-B*15:42,≥ 5000 nM
same,Kd,HLA-A*11:01,1.7 nM
same,Kd,HLA-A*68:01,10.5 nM
VSMDQLASY,Kd,HLA-B*46:01; source organism: Homo sapiens,31.4 nM
same,Kd,HLA-A*01:01 [15]; source organism: Homo sapiens,164 nM
VTYECPLLV,Kd,HLA-A*01:01 [16],343 nM
same,Kd,HLA-A*02:17; [19],562 nM
same,Kd,HLA-A*02:01 [12]; [19],26.6 nM
YLALIATFKI,Kd,HLA-A*02:17; source organism: Dengue virus 3 China/80-2/1980,885 nM

# — the Immune Epitope Database (IEDB)
